According to the domain aggregation screens of Martell et al. (2025):

Assay: soluble fraction after stress (log2 fold change); higher = more stays soluble; pooled small domains, quantitative proteomics
Settings: stress: 75 degC
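Further: 20 min heating vs room temperature control held 20 min.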

Point of comparison: “HMTPFLVRVDISDLNIRTGAGTNYSRTGQYTGKGIFTILEVKSGQGSDAGWGRLKSGAGWISLDYTTR”, “soluble fraction (log2)” value -2.84. Against it:
- HMTLDSLEKLSVNDLEKMLVNMPVGYKTIFLLSVIDEYSHKEIGELLGITPETSRSQLFRAIKWIKTNIF — higher, -0.631
- HMTLGARTLAAIQSLPKVQQAVFTMKHFEGLKYREISQITGTSEGALKASYHIALEKIKAFLREK — higher, -2.18
- HMTLGEHILQYRTARGWSQEDLANALEVSRQSVSKWETDASTPELDKIVRLSEIFQVSIDELVTGKA — higher, -0.316
- HMTLGENLQNLRKEAGLSQEQVAQQLFVSRQTVSKWENNLAEPGVENLKALARLYGVTLDRLVGM — higher, -0.223
- HMTLKVQLSEISKMVSLSYIAKKYFNKSQSWLSQRINGNTIHNKPAKFTSEELATLQFALKDIGNILNSTV — higher, -2.6
- HMTLLVPASKEAILGGLAKIDALKVILKPEKDYSKTHAMTIGTKDEVIAKLDSFLSGMDSEKNQVLIQEYM — higher, 0.456
- HMTLSDIGHAVRTRRTELGLSQVQLARLSGLSRQTLVGLENGTLNDLGINRVAQLLAVLGLDAP — higher, -2.02
- HMTLSHAINRLRLNANMSQEQFAGLFHVSQQSVQKWESGDSVPELSKLIAIAKHFGISLDALILGN — higher, -2.52
- HMTLTEQQITDNYKELRKIINDTFSGLRLDKLNHMYDDLEDRMVVAPASSVEHYHNSKVGGYVEHILHVI — higher, -0.124
- HMTLTIEDGYVNAKLKTTVEGLAEDSTIKVDSIEYTNAGKNDILTVFVEDKPYRVEKYKINIAPEDS — higher, 0.139
- HMTLVSALDQKTKDSAYYRGTYLAGKISAGKMTKQEAVADIMKNYDGNTAAMKVAAEKAGVSDLLSQTVL — higher, 0.0489
- HMTMKQVFIETDANVNQKIMLNEKEAHHLFDVLRTSDKETIRVVTNTSQVFLARVQQKPYIYLFDKMTVE — higher, -2.49
- HMTMNYFIIENNQQVGPLTLEQLVARNITSDTLVWKEGMEDWQPAWKVDELHTVLDQIRANAEQ — higher, -0.00196
- HMTMVVIMNADATQADIEGVISAIEEKGLEAKVMEGAHQKIVGVIGDKTKLAATPLDAMHGVETTVAIS — higher, -0.244
- HMTNATVGQIKKLARASILYGNSNLSGNRYTYKANTTVTILQNISSNVDKIRVNVTGRVAYIDNSNYSSST — lower, -3.59
- HMTNEQLSKAKSWVQIAVYAAEKLYGAGNGDQKLVYAEEILRKHGIRLDTATLKAMIDAQIKEMEN — higher, -1.01
- HMTNEWRKILSNLNGKYQIVMELFYVDGFSTKEIARMLHITEVNVRSRMVRGRKQLEQILTVR — higher, -0.0301
- HMTNPPITTEARNLVVEQLKELNALHPEKARELADSYKKEFNVPKVIGHITEARHGEFLALAISKIDES — higher, -0.241
- HMTNPPTPADTLFNTVRGVLQSILKSPMKDTEVASALNVSKAQARSWLQRLSDEGLIEKRKNPTAYVL — higher, -0.592
- HMTNTYEVIKNDIIFGVLPPLKKLKLLELKKKYITSVSTLREILSRLSGDGFVVSKEQKGFYVSAV — higher, -0.0741
- HMTNVNSLIGKKAIVIQDIDNLKSTGQVKIGGEIWSAQSESNDIISKDTEVEIVKIDGVKLIVRLVPV — higher, -0.153
- HMTNYNTEKIIPEEQAGKRLDVVLANIFPEFSRSRLKNWIIDGFILVDGKVLRPRDFVTGGELVSIDVIV — higher, -0.123
- HMTPADEAGNDLDIGQTVKILRRVSEGQYEVSYRGTTWQARALNAQAAVEPSFAVIGGKEGNILLVHL — higher, -0.202
- HMTPDVAEFRERLRQILPGEQIEVRTANDGIVLSGTVSSIARLDAALQLAERYAPSRVSNLMSVG — higher, 0.00274
- HMTPEPVREALTFQEGRVFALAAKNMTNAEIAQSLSLKLKTVENYMSIIYQKLALKNRYELLVYARKSGV — higher, -0.576
- HMTPESSLHSGLGKILHDALTAKIQLTNFEAKFLSDMQSKYDLNGSFSWLSSKQQTTLEKILAKYGR — higher, -1.98
- HMTPIELIEKTIELIENERKVQKLQQKELALKADIPFPTYKDFIYKKRASLENILKLFIALRLF — higher, -0.384
- HMTPKVAVPSFVGWKFEDVERQLGTMGLIRGKVDNHPSEEYSEGRVIWQSVLGEVEKGKVIDFWVSTGPE — higher, 0.0612
- HMTPNATWQDDAQSLLRDLIQHQPVLIQISAAKRLRDQAEQISRITGGDTVTRDHVEAAGHALGMGVT — higher, -0.0233
- HMTPPLSKIRNMTPDQQRSSVIEARKKGYNLLQLEGLAKAQGATPADLLVLRNAWAQSEFDQKR — higher, 0.067
- HMTPQVALNDTETAIYEKMKQEKQMLLGELRAQFDISNKLWDTSLKTLTKNQLLAVSKEDDLLFVKL — higher, -0.195
- HMTPQVTVPDVTGQSFASAKQVLESLGLTVKQQGSTGENDKVIGQNPTSGNADKGATITLTTQDS — higher, 0.536
- HMTPSTVQVHVAGAVKNPGVYVLLENARNIDAITAAGGATSEADLERINLSEFIRDGQRVYVPYKGDPI — higher, 0.459
- HMTPTITNALEEAEKAVSEVQEGKKEIELTPQGAYIRHLQHAIADRYGISSTSTGRDPKRKVIIY — higher, -0.578
- HMTPTNILIVEDEKEIRRFVRTALESEGLRVFESETLQRGLIEAGTRKPDLIILDLGLPDGDGLSYIRDLR — higher, -0.0383
- HMTPTRQATVSVAALNVREQPSLQGRRLGKLTQGTTLTVVGPPGEWLKIEYKGETGFVYASYTSLG — higher, -2.01
- HMTPTVEAAKEEVLRVLASAAPRGLTRTELEAEVSFRRTKLRDTLVELERIGRIDSVGRRGNATTYRLIG — higher, -1.44
- HMTPVEVNARGVHVDFSKGGILLEDVVRHLILEALRASEWKRGPAAQLLGISKETLRYRMEKYRLYPP — higher, -2.43
- HMTPYEVLVYESLKQKILSGGYAAGEKIPEQSVSEELGVSRSPLRSAIRRLASEGLIEYYPYRGAFVKA — higher, -1.06
- HMTQEAMRSLRKSLQNLSSRQQVIFMLRHYEGLALKEIAEHLGLETGTVKAHLHRAVTQLRKDLVE — higher, -1.85
- HMTQHDIVPLMLKMVDVLTQFVELDIPFLQQERQTRLAALNAMMGRADVSLAEKYRRIMEAYQVETEYG — higher, -0.0856
- HMTQLEVDLFERLITISGVGPRLALAVLSGLEPPDLLRAIQDSDIVRLQGIPGVGKKTAERISLELKDKLS — higher, -1.35
- HMTQQYVEWKVYNVTTIKNKYGFRVKLIFQDGSDATQQKGGFTSKKAAEQARTEVIGQLYSNTYVVY — lower, -4.59
- HMTQSGLTQWEFNMLRQALIEMLGEKPGSVFELARLLPLEQEKNVQALRFLLDHDDQFHLKDEYISFVKRT — higher, -2.34
- HMTQTAVFSKGEQEYYFPLSKVLFFETDGNTINVHTADDIYETRYRLYELEEMLPGSFMRISKSAVVNTNR — higher, 0.00772
- HMTRAEVQALLEKQAKDFEVEVVHRGWKKTVQTPEFAGWYSQQPAEIKALAESDDPAVAIRMLDLFSGTK — higher, -0.0943
- HMTRETTQAWWEARQTLPSGEQRSAASLSQEASHVRRFYRWAMQQGLTDRNPADWLPDVRQK — higher, -0.603
- HMTRIHEEVVNQVHDLVKEGRFKAGDQLPSERELAEIFKVSRTSVREALRALETQGLIISRTGMGNFIAD — higher, -0.249
- HMTRILTEDDIVNFLIRQPDTAYIIAKSFNENERKVKELLDLLIKKNKVREEIVNGVVSYAVN — higher, -0.229
- HMTRKQTIYEFLRRMKSQHGLDAVYSTEEIANAVGVSRANVSSDLNRLFEEQLVEKLPGWPVKYRA — higher, -0.344
- HMTRNEFMTALRKRLSHLPAEEQDAALKYYEEYFDEAESEEEAARQLGSPDAIADRILADYGAG — higher, 0.327
- HMTRPLVILEDVKFPSYNEIVSLTLPDGTRRGGQVLEVSGNKAIVQVFEGTSGIDVKDTHIELTKSS — higher, 0.237
- HMTRQEFIRKLQEALNGKLDAATIQDHLKFYDDYIIEEMRKGKSEQEVLELLGDPWAIAKTIVDAS — higher, 0.669
- HMTRQKEAILALLTDSRGEALSASELLARLTRSGSSIGRTTVYRLLSQLVDDGVVRAWRDASRGITLYELS — higher, -1.1
- HMTRQPSAKEHAVLTAVKEGLRRDGRAPTVRALADMTGAASTSTVQRRISALIDLGLLRRTDGTLEVVE — higher, 0.0806
- HMTRRVIRAPAAGIMRSNVKLGDLVKEGDVIAWIGEHEIKAPLTGMVRGLLNDGLAVVGGFKIGDI — higher, 0.286
- HMTSEPFYNPRRPQPYWTSETDRHTTYADAVRALAREFSETPEWVESNMGETNDLQEIRRNLSRVKSG — higher, 0.125
- HMTSESWAEKSRSLAAAGLIVMGRDAQLKIEGLTNLDPLIEAATASSTRLLTGQTIDELLTIVP — higher, -0.551
- HMTSEVLTNATIVKMVKAKLSDDIIIDEINNARVNFDVSPEGIKSLTAQNVTEPVIETMKKAVAAQESI — higher, 0.467
- HMTSFDVMLKSAGANKLAVVKLVKELTGLGLKEAKDIVDAAPSKVKEGVSKEEAEELQKQLTGAGAEVEL — higher, -0.113
- HMTSHYTVLGVKETDTIEMIRTHYRKLILQFHPDKNQHLTEEERKKLEVKVLQIREAYEKIKKEK — higher, -0.433
- HMTSIISLAKARSIALQKVPGATSKNIHLSLDDEDDKQVYEGEIKYKQMEYVFEIDAKTGTFLKWTSERD — higher, -1.92
- HMTSKTLSAVEGEGLRLDKFLSNQLPELSRTKIQKMINDGLVFVNNTEAKASLILDGSEFIAYTVPD — higher, -0.243
- HMTSLAEQAYRHIRDKLSNGAFVPGEQLVNRVLATEIGVSVIPVREAINRLATEGLVKHVPGSGAFVRQ — higher, -0.0622
- HMTSLYDILGIAKTADSQTIKTAFKKKALLYHPDKNNGNLKKEEIFKKISTAYQILSDPKSRANYDLSIA — higher, -0.272
- HMTSMNNTEELIDMANKIIDNNPNMVLKYKEGRNVLDFFIGQVMKETKGRANPSATSKIFKDLLEK — higher, -0.0827
- HMTSNKTVPYSELKGLISTGKIEYVGIGNTQIRAVSKSGAGIVTYTARRVIPDDTLIPELEKNGIAYGGI — higher, -0.838
- HMTSNSLNLKDEISAFLTKNAGISYSAERIAHALNMDNADQFTPIIQTLAQLEREKKVRVTDKGEFEAVIK — higher, 0.02
